In one assay the target is T1, SPA1-Kin (Arabidopsis thaliana, UniProt Q9SYX2).
T1 sequence (Q9SYX2 1-545 limits assumed): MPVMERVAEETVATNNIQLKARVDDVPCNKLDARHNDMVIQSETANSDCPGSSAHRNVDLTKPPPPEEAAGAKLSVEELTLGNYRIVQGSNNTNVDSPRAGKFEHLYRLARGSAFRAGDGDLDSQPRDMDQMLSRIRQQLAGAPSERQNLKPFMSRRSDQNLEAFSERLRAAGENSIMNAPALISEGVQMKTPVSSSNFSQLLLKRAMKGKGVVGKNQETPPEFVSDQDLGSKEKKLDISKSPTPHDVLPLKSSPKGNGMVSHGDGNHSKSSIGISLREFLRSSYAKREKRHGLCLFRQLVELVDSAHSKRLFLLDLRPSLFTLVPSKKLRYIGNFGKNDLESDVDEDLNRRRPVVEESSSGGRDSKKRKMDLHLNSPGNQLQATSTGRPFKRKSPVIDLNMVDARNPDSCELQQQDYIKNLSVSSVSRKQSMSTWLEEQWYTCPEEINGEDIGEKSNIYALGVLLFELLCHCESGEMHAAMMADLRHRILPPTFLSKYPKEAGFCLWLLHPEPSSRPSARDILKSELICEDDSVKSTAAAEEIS
In words: in vitro autophosphorylation assay, autoradiogram. The format is biochemical. To be noted: 10 mM MgCl2, pH 7.5, 28 °C; labelled compound (gamma-32P).

The target in assay [1] is T2, phyB-GFP FL purified from yeast (Saccharomyces cerevisiae) (Arabidopsis, UniProt P14713 1-1172, phycocyanobilin (PCB) chromophore assembled).
T2 construct: not shown: GFP, C-terminal, kept
T2 sequence (looked up): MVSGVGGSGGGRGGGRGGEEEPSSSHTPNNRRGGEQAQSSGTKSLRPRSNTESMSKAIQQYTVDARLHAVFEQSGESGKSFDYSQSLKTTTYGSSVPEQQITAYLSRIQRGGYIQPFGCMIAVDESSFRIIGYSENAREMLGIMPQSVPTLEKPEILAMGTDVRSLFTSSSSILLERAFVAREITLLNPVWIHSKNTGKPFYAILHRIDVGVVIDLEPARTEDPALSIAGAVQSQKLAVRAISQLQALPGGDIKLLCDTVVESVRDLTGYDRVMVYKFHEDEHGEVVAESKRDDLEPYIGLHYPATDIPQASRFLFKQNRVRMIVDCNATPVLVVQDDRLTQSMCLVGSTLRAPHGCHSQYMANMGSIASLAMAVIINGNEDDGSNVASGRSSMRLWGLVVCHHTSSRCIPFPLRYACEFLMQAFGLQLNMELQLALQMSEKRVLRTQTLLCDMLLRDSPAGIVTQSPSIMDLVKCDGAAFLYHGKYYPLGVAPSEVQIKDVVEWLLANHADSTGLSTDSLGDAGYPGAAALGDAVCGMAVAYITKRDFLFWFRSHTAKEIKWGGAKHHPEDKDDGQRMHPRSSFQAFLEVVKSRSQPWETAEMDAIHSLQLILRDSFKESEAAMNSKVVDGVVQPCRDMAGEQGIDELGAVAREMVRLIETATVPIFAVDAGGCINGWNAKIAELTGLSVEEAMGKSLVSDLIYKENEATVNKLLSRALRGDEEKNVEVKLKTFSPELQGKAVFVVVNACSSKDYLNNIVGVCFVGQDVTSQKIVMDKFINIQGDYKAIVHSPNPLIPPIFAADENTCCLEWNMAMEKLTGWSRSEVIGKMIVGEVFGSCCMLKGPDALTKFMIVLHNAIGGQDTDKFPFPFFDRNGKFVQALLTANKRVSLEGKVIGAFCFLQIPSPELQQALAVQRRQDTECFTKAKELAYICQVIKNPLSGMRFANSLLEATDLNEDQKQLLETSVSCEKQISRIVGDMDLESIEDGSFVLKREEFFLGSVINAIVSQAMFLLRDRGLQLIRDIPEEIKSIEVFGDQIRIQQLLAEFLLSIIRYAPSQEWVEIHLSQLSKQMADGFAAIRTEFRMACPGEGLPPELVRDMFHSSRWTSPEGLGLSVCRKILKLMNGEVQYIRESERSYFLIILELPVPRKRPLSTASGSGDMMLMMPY
In words: pull-down; in vitro: phytochromes purified from yeast (S. cerevisiae) and GST-PIF1; light-dependent. Conditions: both partners purified.

Assay [2] concerns the target T3, phyB-GFP ΔC purified from yeast (Saccharomyces cerevisiae) (Arabidopsis, UniProt P14713 1-1092, phycocyanobilin (PCB) chromophore assembled).
T3 construct: phytochrome B (phyB), Arabidopsis, residues 1-1092 (lacks the last 80 amino acids); The methods describe the yeast purification only for the full-length protein; also called phyB ΔC-GFP; source: Saccharomyces cerevisiae, purified; not shown: GFP, C-terminal, kept
T3 sequence (looked up): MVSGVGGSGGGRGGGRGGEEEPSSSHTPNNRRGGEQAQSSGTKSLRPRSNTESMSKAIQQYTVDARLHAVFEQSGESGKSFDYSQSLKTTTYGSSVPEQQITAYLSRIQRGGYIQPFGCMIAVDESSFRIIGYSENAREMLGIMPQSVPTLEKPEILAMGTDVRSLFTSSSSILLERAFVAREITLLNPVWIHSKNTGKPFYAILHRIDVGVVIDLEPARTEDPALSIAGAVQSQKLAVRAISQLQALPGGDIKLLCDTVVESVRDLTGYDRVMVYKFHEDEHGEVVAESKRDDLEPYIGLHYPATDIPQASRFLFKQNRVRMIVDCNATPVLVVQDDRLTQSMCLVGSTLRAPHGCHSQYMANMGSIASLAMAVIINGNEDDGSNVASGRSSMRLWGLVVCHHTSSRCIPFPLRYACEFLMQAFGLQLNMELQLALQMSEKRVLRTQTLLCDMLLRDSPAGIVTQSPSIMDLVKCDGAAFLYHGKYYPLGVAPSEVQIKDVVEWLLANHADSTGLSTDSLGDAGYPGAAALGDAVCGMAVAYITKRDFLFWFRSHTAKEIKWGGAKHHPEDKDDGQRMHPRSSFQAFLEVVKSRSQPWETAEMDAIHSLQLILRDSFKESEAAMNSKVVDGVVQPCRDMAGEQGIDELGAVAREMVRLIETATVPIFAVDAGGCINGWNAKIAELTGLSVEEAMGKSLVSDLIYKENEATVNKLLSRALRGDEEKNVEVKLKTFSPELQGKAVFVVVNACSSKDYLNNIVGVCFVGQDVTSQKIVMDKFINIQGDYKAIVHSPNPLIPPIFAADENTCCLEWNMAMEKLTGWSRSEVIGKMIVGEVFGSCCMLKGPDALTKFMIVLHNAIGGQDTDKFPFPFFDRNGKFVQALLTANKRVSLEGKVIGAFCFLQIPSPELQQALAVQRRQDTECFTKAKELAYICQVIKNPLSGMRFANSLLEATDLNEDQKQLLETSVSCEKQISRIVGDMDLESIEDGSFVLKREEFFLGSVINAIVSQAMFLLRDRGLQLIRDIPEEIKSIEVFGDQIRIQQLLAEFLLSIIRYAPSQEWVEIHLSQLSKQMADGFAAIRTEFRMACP
Described as above. To be noted: both partners purified.

Take `Nc1ncnc2c1ncn2[C@@H]1O[C@H](COP(=O)(O)OP(=O)(O)OP(=O)(O)O)[C@@H](O)[C@H]1O` [ATP]: the “in vitro autophosphorylation assay, autoradiogram” value at SPA1-Kin is on record as “The purified SPA1-Kin domain displayed autophosphorylation activity in a protein concentration-dependent manner”.

B1: GST-PIF1-strep (natural protein, Arabidopsis, UniProt Q8GZM7 1-478, looked up)
chain: MHHFVPDFDTDDDYVNNHNSSLNHLPRKSITTMGEDDDLMELLWQNGQVVVQNQRLHTKKPSSSPPKLLPSMDPQQQPSSDQNLFIQEDEMTSWLHYPLRDDDFCSDLLFSAAPTATATATVSQVTAARPPVSSTNESRPPVRNFMNFSRLRGDFNNGRGGESGPLLSKAVVRESTQVSPSATPSAAASESGLTRRTDGTDSSAVAGGGAYNRKGKAVAMTAPAIEITGTSSSVVSKSEIEPEKTNVDDRKRKEREATTTDETESRSEETKQARVSTTSTKRSRAAEVHNLSERKRRDRINERMKALQELIPRCNKSDKASMLDEAIEYMKSLQLQIQMMSMGCGMMPMMYPGMQQYMPHMAMGMGMNQPIPPPSFMPFPNMLAAQRPLPTQTHMAGSGPQYPVHASDPSRVFVPNQQYDPTSGQPQYPAGYTDPYQQFRGLHPTQPPQFQNQATSYPSSSRVSSSKESEDHGNHTTG
notes: source: E. coli BL21(DE3), purified (Strep-Tactin Sepharose); not shown: GST, N-terminal, kept; Strep tag, C-terminal, kept
As for B1, the binding result in assay [1] and in assay [2] was “binds” each time.

These data come from article PMC6746701, “A phyB-PIF1-SPA1 kinase regulatory complex promotes photomorphogenesis in Arabidopsis” (Nature Communications, 2019).
